US7803571B2, “Method for identifying IRS inhibitors or agonists” (Sanfoi-Aventis Deutschland GmbH, priority 2003, dated 2010)
Substitutions are numbered along the chain they refer to. Numbers in names are those of the source. Read-outs that look alike come from different tables or passages of the source. Square brackets hold non-standard residues; d marks the D form. Peptide text beside a SMILES is read from it. pY = N[C@@H](Cc1ccc(OP(=O)(O)O)cc1)C(=O)O; pS = N[C@@H](COP(=O)(O)O)C(=O)O

B1: rIRS-1^449-664: glutathione S-transferase (GST) fusion protein containing the amino acids 449-664 of rat IRS-1 (SEQ ID NO: 17) (protein)
chain: PPARGEEELSNYICMGGKGASTLTAPNGHYILSRGGNGHRYIPGATMGTSPALTGDEAAGAADLDNRFRKRTHSAGTSPTISHQKTPSQSSVVSIEEYTEMMPAAYPPGGGSGGRLPGYRHSAFVPTHSYPEEGLEMHHLERRGGHHRPDSSNLHTDDGYMPMSPGVAPVPSNRKGNGDYMPMSPKSVSAPQQIINPIRRHPQRVDPNGYMMMSPS
modifications: left off: a dimerising Fc or GST
B2: PKC-ζ: recombinant human protein kinase C-ζ, obtained from Calbiochem (protein)
chain: MPSRTGPKMEGSGGRVRLKAHYGGDIFITSVDAATTFEELCEEVRDMCRLHQQHPLTLKWVDSEGDPCTVSSQMELEEAFRLARQCRDEGLIIHVFPSTPEQPGLPCPGEDKSIYRRGARRWRKLYRANGHLFQAKRFNRRAYCGQCSERIWGLARQGYRCINCKLLVHKRCHGLVPLTCRKHMDSVMPSQEPPVDDKNEDADLPSEETDGIAYISSSRKHDSIKDDSEDLKPVIDGMDGIKISQGLGLQDFDLIRVIGRGSYAKVLLVRLKKNDQIYAMKVVKKELVHDDEDIDWVQTEKHVFEQASSNPFLVGLHSCFQTTSRLFLVIEYVNGGDLMFHMQRQRKLPEEHARFYAAEICIALNFLHERGIIYRDLKLDNVLLDADGHIKLTDYGMCKEGLGPGDTTSTFCGTPNYIAPEILRGEEYGFSVDWWALGVLMFEMMAGRSPFDIITDNPDMNTEDYLFQVILEKPIRIPRFLSVKASHVLKGFLNKDPKERLGCRPQTGFSDIKSHAFFRSIDWDLLEKKQALPPFQPQITDDYGLDNFDTQFTSEPVQLTPDDEDAIKRIDQSEFEGFEYINPLLLSTEESV
B3: S570A: serine 570 to alanine mutant of rIRS-1^449-664 GST fusion protein (protein, UniProt P35570 449-664, looked up, variant S570A)
chain: B1 chain with S122A
modifications: GST fusion
notes: serine 570 to alanine mutant of rIRS-1^449-664 GST fusion protein
B4: S612A: serine 612 to alanine mutant of rIRS-1^449-664 GST fusion protein (protein, UniProt P35570 449-664, looked up, variant S612A)
chain: B1 chain with S164A
modifications: GST fusion
notes: serine 612 to alanine mutant of rIRS-1^449-664 GST fusion protein

Legend:
[1] = biological target: T1, p85α (Bos taurus, UniProt P23727); test: Surface plasmon resonance competition assay: binding of 100 nM p85α to immobilized IRS-1 peptides in the presence of competing soluble peptide; design: species or system bovine; details: SPR response at equilibrium 440 s after injection, competitor identical to immobilized peptide
T1 construct: GST (N, cleaved yes); made in house; host or cells: Escherichia coli BL21
Protocol: The principle of operation of the BIAcore™ biosensor (Biacore, Freiburg, Germany) has been described previously (42). To avoid the interfering dimerization of the GST part of the fusion protein, it was cleaved with thrombin during the purification. Because of the known extremely fast association rates of SH2-domains to phosphopeptides the relative affinities were assessed by competition assay (43). Therefore, a constant concentration of p85α (100 nM) was incubated in running buffer (0.01 M Hepes pH 7.4, 0.15 M NaCl, 3 mM EDTA, 0.005% Surfactant P20 (HBS-EP)) with a variable concentration of the competitor peptide (50 nM-10 μM), which was identical to that bound on the CM5 sensor chip surface. After a 1 h preincubation at room temperature the various mixtures were then injected sequentially at a flow rate of 5 μl/min at 25° C. in HBS-EP buffer. The used peptides DDGYMPMSPGV (SEQ ID NO: 7), DDGpYMPMSPGV, DDGYMPMpSPGV and DDGpYMPMpSPGV, representing the amino acids 605 to 615 of rat IRS-1, were synthesized on an Applied Biosystems model 433 peptide synthesizer. All peptides were immobilized with a concentration of 5 mg/ml in 100 mM […] (NaOH pH 8.5) at 1 μl/min by standard amine coupling procedure as described by the manufacturer. Regeneration after each binding experiment was performed by injection of 6 M guanidine hydrochloride for 2 min. The kinetic analysis of the p85α with pY608 and […] interaction has been performed using the BIAevaluation 3.1 software (Biacore, Freiburg, Germany) and GraphPad Prism 3.0 (San Diego, Calif., USA).
The inventors then determined the relative binding affinity of this reaction by monitoring the binding of 100 nM p85α to the peptides pY608 (DDGpYMPMSPGV) and pY608-pS612 (DDGpYMPMpSPGV) in the presence of competing soluble peptides (FIGS. 6D, E, F). Half-maximum inhibitory concentrations (IC50) were obtained by plotting the SPR response 440 s after injection at equilibrium versus the log peptide concentration. […] Solubilized peptides inhibited binding of p85α to the immobilized peptides at micromolar concentrations. […] In order to identify additional PKC-ζ phosphorylation sites on rIRS-1^449-664 that might promote the inhibition of insulin-stimulated tyrosine phosphorylation in the in vitro system, rIRS-1^449-664 was incubated with PKC-ζ and separated by SDS-PAGE. Phosphorylated rIRS-1^449-664 was digested with trypsin and extracted from the gel. The peptides generated by digestion were resolved by two dimensional HPLC and the content of radioactivity in the fractions was monitored by Cerenkov counting. […] To separate comigrating peptides, radioactive fractions of each peak were pooled according to the elution profile and subjected to reversed phase (RP)-HPLC (FIG. 7B). […]

[2] = biological target: T2, insulin receptor (Rattus norvegicus, UniProt P15127); test: In vitro phosphorylation assay: tyrosine phosphorylation of rIRS-1^449-664 by insulin receptor; assay type: biochemical
T2 construct: from tissue; host or cells: rat liver
Protocol: Rat liver was rapidly removed, immediately frozen in liquid nitrogen and processed as described (41). Briefly, 3.5 vol/wt of an ice-cold buffer consisting of 50 mM Hepes (pH 7.4), 1% Triton X-100 and 2× Complete Protease Inhibitors was added and the liver was homogenized using an Ultraturrax and a Potter-Elvehjem homogenizer, followed by centrifugation at 10,000×g for 10 min at 4° C. The resultant supernatant was slowly stirred at room temperature for 60 min, then again centrifuged at 100,000×g for 90 min at 4° C. The supernatant was then applied to an agarose-bound wheat germ agglutinin (WGA) column. The column was washed with 50 mM Hepes (pH 7.4), 0.1% Triton X-100, and bound glycoproteins were eluted from the WGA column with this buffer containing 0.3 M N-acetylglucoseamine.
For rIRS-1^449-664 phosphorylation by insulin receptor, […] of the WGA-purified glycoprotein fraction was preincubated for 30 min at 30° C. with 100 nM of insulin in a phosphorylation buffer containing 20 mM Hepes (pH 7.4), 1 mM DTT, 10 mM MgCl2, 100 μg/ml bovine serum albumin, 0.2 mM Na3VO4, 1.7 mM CaCl2, 0.6 mg/ml phosphatidylserine, and 0.5 μg/ml okadaic acid. Autophosphorylation was initiated by the addition of ATP at a concentration of 50 μM and continued for 10 min at 30° C. Substrate phosphorylations were initiated by addition of equal volumes of […] (1 μg) with or without pre-treatment (30 min) by the PKC isoforms in the same buffer in the presence of 50 μM ATP and was allowed to proceed for 10 min at 30° C. in a final volume of 50 μl. The reaction was terminated by the addition of 6× sample buffer (0.35 M Tris-HCl (pH 6.8), 10.28% (w/v) SDS, 36% (v/v) glycerol; 0.6 M DTT, 0.012% (w/v) bromphenol blue) and boiling for 5 min. Proteins were separated by SDS-PAGE and analyzed by immunodetection with an anti-phosphotyrosine antibody after transfer to nitrocellulose. Serine/threonine phosphorylation of rIRS-1^449-664 by different PKC isoforms was assessed by incubating 1 μg rIRS-1^449-664 with 0.5 μg PKC-rb or PKC-ζ in phosphorylation buffer for 30 min at 30° C. in the presence of 50 μM ATP plus 2 μCi [γ-^32P]ATP in a volume of 20 μl. Proteins were resolved by SDS-PAGE and the stained and dried gels were subjected to autoradiography. The extent of phosphate incorporation was determined by Cerenkov counting of excised fragments.
Proteins were separated by SDS-PAGE using 8-18% gradient gels followed by transfer to nitrocellulose in a semi-dry blotting apparatus. […] All blots were quantified using the Lumilmager software. Significance of reported differences was evaluated by using the null hypothesis and t statistics for unpaired data. […]

[3] = biological target: T1, p85α; test: GST pull down assay: interaction of rIRS-1^449-664 with p85α; assay type: binding, bovine; details: for p85α binding after PKC-ζ treatment, % of control: insulin-stimulated control value set as 100%, n=3
Protocol: In vitro phosphorylated rIRS-1^449-664 was incubated with glutathione sepharose beads on a rotator for 1 h at 4° C. Pellets were washed three times with binding buffer (50 mM Tris (pH 7.4), 150 mM NaCl, 1% (v/v) Nonidet P-40, 1 mM EDTA, 1 mM NaF, 1 mM Na3VO4). Then 0.5 μg recombinant p85α was added and incubation was continued for 2 h at 4° C. After three times washing, the bound proteins were eluted with 20 μl of 2× sample buffer and separated by SDS-PAGE.
Proteins were separated by SDS-PAGE using 8-18% gradient gels followed by transfer to nitrocellulose in a semi-dry blotting apparatus. The membrane was then blocked 60 min in Tris-buffered saline containing 0.05% Tween 20 and 1% BSA or 5% non fat dry milk and probed with appropriate antibodies (anti-IRS-1, anti-pTyr, anti-p85α). After extensive washing, the membranes were incubated with horseradish peroxidase-conjugated secondary antibodies, again washed and then the protein bands were visualized by the enhanced chemiluminescence (ECL) method on a Lumilmager workstation (Boehringer, Mannheim, Germany). All blots were quantified using the Lumilmager software. Significance of reported differences was evaluated by using the null hypothesis and t statistics for unpaired data. A p value less than 0.05 was considered to be statistically significant.

[4] = biological target: T3, IR β-subunit (Rattus norvegicus, UniProt P15127); test: Autophosphorylation of IR β-subunit in the presence of PKC isoforms; assay type: biochemical; details: autoactivated receptor incubated 10 min at 30° C. with PKC
T3 construct: from tissue; host or cells: rat liver
Protocol: (A) Autophosphorylation of IR was conducted as outlined in FIG. 2. Either PKC-rb or PKC-ζ was added after 10 min of autophosphorylation and incubation was continued for another 10 min. Tyrosine phosphorylation of IR β-subunit was then analyzed by immunoblotting. (B) Quantification of blots was obtained using Lumi Imager software. Data are mean values±SEM (n=4-6).
For rIRS-1^449-664 phosphorylation by insulin receptor, […] of the WGA-purified glycoprotein fraction was preincubated for 30 min at 30° C. with 100 nM of insulin in a phosphorylation buffer containing 20 mM Hepes (pH 7.4), 1 mM DTT, 10 mM MgCl2, 100 μg/ml bovine serum albumin, 0.2 mM Na3VO4, 1.7 mM CaCl2, 0.6 mg/ml phosphatidylserine, and 0.5 μg/ml okadaic acid. Autophosphorylation was initiated by the addition of ATP at a concentration of 50 μM and continued for 10 min at 30° C. […] Proteins were separated by SDS-PAGE and analyzed by immunodetection with an anti-phosphotyrosine antibody after transfer to nitrocellulose. Serine/threonine phosphorylation of rIRS-1^449-664 by different PKC isoforms was assessed by incubating 1 μg rIRS-1^449-664 with 0.5 μg PKC-rb or PKC-ζ in phosphorylation buffer for 30 min at 30° C. in the presence of 50 μM ATP plus 2 μCi [γ-^32P]ATP in a volume of 20 μl. […] The extent of phosphate incorporation was determined by Cerenkov counting of excised fragments.

[5] = read-out: IC50, inhibition of p85α binding by soluble peptide, two site competition fit, first value
[6] = read-out: IC50, inhibition of p85α binding by soluble peptide, two site competition fit, second value
[7] = rIRS-1^449-664 preincubated with 0.5 μg PKC for 30 min, insulin-stimulated value set as 100%

T1 sequence (P23727 whole entry): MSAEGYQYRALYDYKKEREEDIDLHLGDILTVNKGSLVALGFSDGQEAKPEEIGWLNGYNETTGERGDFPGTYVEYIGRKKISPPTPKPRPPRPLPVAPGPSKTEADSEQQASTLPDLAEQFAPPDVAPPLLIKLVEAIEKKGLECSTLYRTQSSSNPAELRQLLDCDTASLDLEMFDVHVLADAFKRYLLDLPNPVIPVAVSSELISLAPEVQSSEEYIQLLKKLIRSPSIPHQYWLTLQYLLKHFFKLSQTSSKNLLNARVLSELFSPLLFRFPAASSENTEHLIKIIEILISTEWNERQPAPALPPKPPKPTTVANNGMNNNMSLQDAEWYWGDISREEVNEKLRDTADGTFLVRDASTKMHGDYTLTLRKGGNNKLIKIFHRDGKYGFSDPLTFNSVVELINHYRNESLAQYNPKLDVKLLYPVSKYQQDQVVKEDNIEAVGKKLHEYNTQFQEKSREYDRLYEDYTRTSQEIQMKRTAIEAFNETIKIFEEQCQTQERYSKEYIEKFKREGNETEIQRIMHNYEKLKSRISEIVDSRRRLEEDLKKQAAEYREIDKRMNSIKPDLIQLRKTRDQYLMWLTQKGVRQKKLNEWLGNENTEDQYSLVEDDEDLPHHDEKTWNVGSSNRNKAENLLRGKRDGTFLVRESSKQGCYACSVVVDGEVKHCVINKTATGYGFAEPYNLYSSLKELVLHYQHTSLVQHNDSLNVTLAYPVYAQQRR
T2 sequence (P15127 27-759 limits assumed): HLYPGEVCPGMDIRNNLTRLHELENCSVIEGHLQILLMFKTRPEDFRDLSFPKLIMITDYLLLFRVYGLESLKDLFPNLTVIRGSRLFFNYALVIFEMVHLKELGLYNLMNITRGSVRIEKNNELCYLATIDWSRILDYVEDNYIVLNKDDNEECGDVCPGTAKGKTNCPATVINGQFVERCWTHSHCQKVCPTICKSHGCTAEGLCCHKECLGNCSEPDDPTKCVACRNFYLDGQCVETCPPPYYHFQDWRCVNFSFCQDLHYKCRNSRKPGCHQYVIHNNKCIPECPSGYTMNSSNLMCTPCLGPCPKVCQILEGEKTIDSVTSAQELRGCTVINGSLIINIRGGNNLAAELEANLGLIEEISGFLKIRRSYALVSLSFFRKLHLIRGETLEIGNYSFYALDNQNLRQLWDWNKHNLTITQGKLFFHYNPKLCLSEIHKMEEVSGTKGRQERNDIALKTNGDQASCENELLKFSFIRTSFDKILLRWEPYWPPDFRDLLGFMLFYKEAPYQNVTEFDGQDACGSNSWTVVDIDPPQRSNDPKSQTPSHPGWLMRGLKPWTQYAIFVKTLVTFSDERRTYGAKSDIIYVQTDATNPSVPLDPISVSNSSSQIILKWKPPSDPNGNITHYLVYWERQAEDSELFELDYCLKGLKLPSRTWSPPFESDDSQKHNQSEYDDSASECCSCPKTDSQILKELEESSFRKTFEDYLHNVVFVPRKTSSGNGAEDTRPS
T3 sequence (P15127 27-759 limits assumed): as above

Row | Molecule | IC50 [1, 5] [nM] | IC50 [1, 6] [nM] | p85α binding after PKC-ζ treatment, % of control [3] | other results
1 | CSCC[C@H](NC(=O)[C@@H]1CCCN1C(=O)[C@H](CCSC)NC(=O)[C@H](Cc1ccc(OP(=O)(O)O)cc1)NC(=O)CNC(=O)[C@H](CC(=O)O)NC(=O)[C@@H](N)CC(=O)O)C(=O)N[C@@H](CO)C(=O)N1CCC[C@H]1C(=O)NCC(=O)N[C@H](C(=O)O)C(C)C [pY608, DDGpYMPMSPGV] (H-DDG[pY]MPMSPGV-OH; N-terminus and C-terminus assumed) | 260 | 16600 |  | 
2 | CSCC[C@H](NC(=O)[C@@H]1CCCN1C(=O)[C@H](CCSC)NC(=O)[C@H](Cc1ccc(OP(=O)(O)O)cc1)NC(=O)CNC(=O)[C@H](CC(=O)O)NC(=O)[C@@H](N)CC(=O)O)C(=O)N[C@@H](COP(=O)(O)O)C(=O)N1CCC[C@H]1C(=O)NCC(=O)N[C@H](C(=O)O)C(C)C [pY608-pS612, DDGpYMPMpSPGV] (H-DDG[pY]MPM[pS]PGV-OH) | 150 | 2880 |  | 
3 | B1 |  |  |  | Insulin-stimulated tyrosine phosphorylation, stimulation over basal ([2]; WGA-purified insulin receptor, 100 nM insulin, n=10): 8.8±1.1 fold; Reduction of tyrosine phosphorylation by IR after PKC-ζ pretreatment ([2]; wild type and mutant fusion proteins as substrate, relative to insulin-stimulated control): 30-40%; Interaction of p85α with the tyrosine phosphorylated fusion protein ([3]; after insulin-stimulated tyrosine phosphorylation by IR): significant increase
4 | B2 |  |  |  | Alteration of IR autophosphorylation compared to controls [4]: No significant alteration; Reduction of insulin-stimulated tyrosine phosphorylation of rIRS-1^449-664 by PKC pretreatment [2, 7]: 46±5%; Inhibition of p85α association with rIRS-1^449-664 by PKC pretreatment [3, 7]: 81±1%
5 | B3 |  |  | 43±4 % of control | 
6 | B4 |  |  | 28±3 % of control | 
